Assay: Targeted proteomics (PRM) assay for RUCILP2 in human plasma
Settings: measured from 6 individuals
From the text: FIG. 25. Representative chromatogram showing the presence of RUCILP2 in fasting human plasma. Parallel reaction monitoring (PRM) elution profile for y-ions for the unique tryptic RUCILP2 peptide (EAAGYNVYVDGVK) found in human plasma samples. Top panel is PRM trace for the fragmental ions (box a) of light peptide found in human plasma sample, bottom panel is PRM trace for the fragmental ions (box b) of 10.0 femtomole of heavy isotope labelled (Lys ^13C6, […]) synthetic peptide (internal standard, IS) spiked into fractionated human plasma samples. Retention times for each peptide are labeled on the x axis, and y axis represents the relative intensity for each fragmental ion peak. One milliliter of human plasma sample was depleted of albumin and immunoglobulin G following deglycosylation. Deglycosylated plasma was resolved by SDS-PAGE and molecular mass regions corresponding to completely deglycosylated RUCILP2 (10-15 kDa) was excised and subsequently digested in-gel overnight before LC-MS/MS detection. Based on comparative analysis on relative intensities of fragmental ions found in processed human plasma and fragmental ions found in plasma spiked with heavy isotope labelled internal standards, we estimate the inter-individual concentrations of RUCILP2 in human plasma vary between 10 and 100 pg/ml. […]

B1: RUCILP2: 87 amino acid irisin-like polypeptide cleaved from the Ruminococcus torques FNDC5-like protein RUMTOR_00181; recombinant, 6-His-tagged from E. coli (protein)
chain: APVDVKVSEITETSAKASWKNAADGKEAAGYNVYVDGVKLNKELLTEASCGLTNLKAETTYFVEVTAVDAAGNESVKSEKVTFKTLK
modifications: 6-His tag; Ruminococcus torques
notes: 87 amino acid irisin-like polypeptide cleaved from the Ruminococcus torques FNDC5-like protein RUMTOR_00181; recombinant, 6-His-tagged from E. coli
  inter-individual concentration interval of RUCILP2 in human plasma: 10 to 100 µg/mL

Source: patent publication US20240336661A1, “PEPTIDES DERIVED FROM RUMINOCOCCUS TORQUES” (University of Copenhagen, priority 2021, published 2024)
